The values below come from IntAct's records for PubMed 21217698.

Sequences and labels used below:
B1: DnaJ homolog subfamily B member 11 (Mus musculus), Q99KV1 (parent)
chain: MAPQNLSTFCLLLLYLIGTVIAGRDFYKILGVPRSASIKDIKKAYRKLALQLHPDRNPDDPQAQEKFQDLGAAYEVLSDSEKRKQYDTYGEEGLKDGHQSSHGDIFSHFFGDFGFMFGGTPRQQDRNIPRGSDIIVDLEVTLEEVYAGNFVEVVRNKPVARQAPGKRKCNCRQEMRTTQLGPGRFQMTQEVVCDECPNVKLVNEERTLEVEIEPGVRDGMEYPFIGEGEPHVDGEPGDLRFRIKVVKHRIFERRGDDLYTNVTVSLVEALVGFEMDITHLDGHKVHISRDKITRPGAKLWKKGEGLPNFDNNNIKGSLIITFDVDFPKEQLTEEAKEGIKQLLKQGPVQKVYNGLQGY

In the experiment the parent is B1. Conditions: with bip_mouse Hspa5, P20029.
bip_mouse Hspa5, P20029, sequence (P20029 whole entry): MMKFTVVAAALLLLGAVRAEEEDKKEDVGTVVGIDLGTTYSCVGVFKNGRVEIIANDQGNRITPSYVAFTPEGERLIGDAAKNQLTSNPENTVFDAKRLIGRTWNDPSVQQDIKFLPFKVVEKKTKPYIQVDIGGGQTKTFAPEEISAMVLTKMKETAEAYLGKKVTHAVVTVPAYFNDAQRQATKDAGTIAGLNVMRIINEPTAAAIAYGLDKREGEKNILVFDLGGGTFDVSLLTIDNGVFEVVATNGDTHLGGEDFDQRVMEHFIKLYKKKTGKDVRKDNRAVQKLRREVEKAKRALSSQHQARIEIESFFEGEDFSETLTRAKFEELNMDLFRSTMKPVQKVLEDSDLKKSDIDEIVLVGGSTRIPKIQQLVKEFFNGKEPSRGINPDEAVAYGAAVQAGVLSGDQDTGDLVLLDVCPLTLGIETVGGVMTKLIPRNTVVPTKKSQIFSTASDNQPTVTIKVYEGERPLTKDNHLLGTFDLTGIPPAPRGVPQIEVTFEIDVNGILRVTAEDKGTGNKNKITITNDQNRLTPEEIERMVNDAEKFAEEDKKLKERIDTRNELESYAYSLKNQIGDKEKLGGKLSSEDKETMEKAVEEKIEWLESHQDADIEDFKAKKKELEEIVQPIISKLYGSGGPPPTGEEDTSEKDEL
Regarding H53Q, the “effect of a mutation on the interaction” value is on record as “disrupting interaction”.
